Among the data in paper PMC4654454 (ACS chemical biology, 2015) are fold reduction of affinity against wild type hORC1BAH values, retold here.

This test deals with nucleosome core particle labeled with H4Kc20me2. In words: native gel or EMSA. (In general: Mobility shift assays separate free from complexed probe on a gel.)

Bounds are passed on as bounds.

Regarding “human Origin Recognition Complex subunit 1 BAH domain, R105Q mutant (from UniProt Q13415 45-171) (domain or fragment)”, the fold reduction of affinity against wild type hORC1BAH was above 2 fold.
